These are literature values, as cited in publication PMC3385930.

pKd: −log10 of the molar value.

One data set has as its target Band 3 (Homo sapiens) (UniProt P02730).
The next data set deals with Adducin (Homo sapiens) (UniProt P35611).

UniProt P02730, sequence (P02730 whole entry): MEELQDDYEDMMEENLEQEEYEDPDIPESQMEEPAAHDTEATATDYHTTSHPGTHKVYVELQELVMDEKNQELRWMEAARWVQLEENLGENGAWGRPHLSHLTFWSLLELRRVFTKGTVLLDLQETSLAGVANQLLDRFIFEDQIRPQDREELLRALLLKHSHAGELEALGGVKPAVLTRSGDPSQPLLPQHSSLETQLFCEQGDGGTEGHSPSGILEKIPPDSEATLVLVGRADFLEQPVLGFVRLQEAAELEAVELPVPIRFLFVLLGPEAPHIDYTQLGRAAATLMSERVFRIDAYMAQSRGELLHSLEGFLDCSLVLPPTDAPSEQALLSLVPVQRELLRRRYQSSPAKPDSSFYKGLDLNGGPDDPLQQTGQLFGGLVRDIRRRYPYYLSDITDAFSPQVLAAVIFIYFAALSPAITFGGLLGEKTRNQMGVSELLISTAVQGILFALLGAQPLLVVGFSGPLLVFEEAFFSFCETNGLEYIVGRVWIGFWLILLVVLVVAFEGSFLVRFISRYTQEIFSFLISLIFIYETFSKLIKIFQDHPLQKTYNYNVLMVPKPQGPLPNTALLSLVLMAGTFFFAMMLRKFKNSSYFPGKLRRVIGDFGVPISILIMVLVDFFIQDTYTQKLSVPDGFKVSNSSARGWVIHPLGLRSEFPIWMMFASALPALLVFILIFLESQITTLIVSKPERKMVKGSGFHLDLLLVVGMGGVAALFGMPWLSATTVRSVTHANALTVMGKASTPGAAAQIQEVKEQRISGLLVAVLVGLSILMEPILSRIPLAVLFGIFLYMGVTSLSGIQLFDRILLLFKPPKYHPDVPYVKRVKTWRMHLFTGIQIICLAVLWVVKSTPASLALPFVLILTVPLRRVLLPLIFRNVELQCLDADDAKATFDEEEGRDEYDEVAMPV

As a reminder, the pKd is −log10 of the Kd, conventionally taken in molar units. As to Adducin (from UniProt P35611), the pKd in the data set with Band 3 (Homo sapiens) is 7.00.
Take Stomatin (from UniProt P27105): in the data set with Adducin (Homo sapiens), the negative-log Kd (pKd) is 7.00.
